Where no end group is shown, it is not given here. The star is where a group is joined. DOTA = O=C(O)CN1CCN(CC(=O)O)CCN(CC(=O)*)CCN(CC(=O)O)CC1; Ahx = NCCCCCC(=O)O

From patent US20160303258A1 come the findings set out here.

Assay [1] has as its target guanylyl cyclase C (GCC) (human), P25092. The assay can be described thus: in vitro competitive binding assay with HEK-293 GCC clone 2 cells (Indium-111 used as surrogate label; FIG. 13).
Assay [2] has the same target. As to the kind of experiment: competitive binding against [111In]MLN6907 on HEK-293 GCC Clone 2 cells; DSP without chelation reaction conditions.
Assay [3] has the same target. As to the kind of experiment: in vivo competitive binding against [68Ga]MLN6907 DP in tumor models with different GCC expression levels; semi-mechanistic model.
Assay [4] shares this target. As to the kind of experiment: competitive binding against [111In]MLN6907 on HEK-293 GCC Clone 2 cells; DSP treated with chelation reaction conditions (acetone:HCl, about 100 C, 10 min).
The target is the same in assay [5]. As to the kind of experiment: in vivo competitive binding study with [68Ga]MLN6907 in HEK-293 GCC Clone 2 tumor-bearing mice, model-derived.

Chain of guanylyl cyclase C (GCC) (human), P25092 (P25092 24-1073 limits assumed): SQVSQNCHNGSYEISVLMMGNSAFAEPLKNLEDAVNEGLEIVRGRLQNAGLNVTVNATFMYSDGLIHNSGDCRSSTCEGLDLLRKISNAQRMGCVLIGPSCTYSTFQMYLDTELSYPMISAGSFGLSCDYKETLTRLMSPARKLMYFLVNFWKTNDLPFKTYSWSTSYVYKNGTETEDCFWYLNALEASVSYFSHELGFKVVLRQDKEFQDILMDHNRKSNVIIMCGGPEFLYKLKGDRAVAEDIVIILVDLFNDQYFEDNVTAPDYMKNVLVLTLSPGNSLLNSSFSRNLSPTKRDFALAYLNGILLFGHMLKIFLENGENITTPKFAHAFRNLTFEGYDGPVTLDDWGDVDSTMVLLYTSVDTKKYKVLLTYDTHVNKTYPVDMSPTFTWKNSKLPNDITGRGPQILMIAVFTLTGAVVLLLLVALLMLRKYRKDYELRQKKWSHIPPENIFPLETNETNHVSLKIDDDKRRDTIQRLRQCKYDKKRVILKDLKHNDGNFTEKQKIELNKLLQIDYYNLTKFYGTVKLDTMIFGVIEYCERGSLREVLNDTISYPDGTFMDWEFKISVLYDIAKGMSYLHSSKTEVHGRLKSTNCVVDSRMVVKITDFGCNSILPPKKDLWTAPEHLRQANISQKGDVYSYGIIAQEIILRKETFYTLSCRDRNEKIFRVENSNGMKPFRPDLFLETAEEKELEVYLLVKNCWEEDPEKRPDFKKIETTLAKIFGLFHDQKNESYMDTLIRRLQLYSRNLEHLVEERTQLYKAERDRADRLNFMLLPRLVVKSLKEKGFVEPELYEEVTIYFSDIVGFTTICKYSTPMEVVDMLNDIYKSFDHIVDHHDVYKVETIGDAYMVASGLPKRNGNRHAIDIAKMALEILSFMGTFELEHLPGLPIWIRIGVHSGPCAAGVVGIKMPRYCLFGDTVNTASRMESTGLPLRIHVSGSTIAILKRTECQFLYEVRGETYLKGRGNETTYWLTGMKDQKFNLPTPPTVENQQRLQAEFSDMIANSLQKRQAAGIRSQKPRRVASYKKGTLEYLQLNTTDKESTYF

In assay [1], CCELCCNPACAGCY (modifications not checked) [MLN6907 DSP (drug substance precursor), Formula (VI): DOTA-Ahx-STp(5-18), not radiolabeled] registered a Kd of 3.2 nM. Besides, the IC50 in assay [2] was determined as 4.59 nM; in assay [4] it was 4.75 nM. Besides, the concentration for a half-maximal effect (EC50) in assay [3] lay within 97.1 to 5660 nM.

B1: [68Ga]MLN6907 DP (drug product), Formula (VIa) (peptide)
peptide: {DOTA-Ahx}-CCELCCNPACAGCY
modifications: ends and bridges not checked; also: 68Ga complexed by DOTA, cyclised (places not given here)
Molecule B1 came in with a Bmax (antigen surface density, HEK-293 GCC Clone 2) in assay [5] of 14000.

As a reminder, the Kd is the concentration at which binding is half-saturated. Read a low Kd as tighter binding. The IC50 is the concentration needed to halve the response being measured. Lower therefore signals greater potency. For orientation: EC50 means the concentration needed to bring the measured effect to its halfway point. Lower therefore signals a more potent agent.
